Measurements: patent publication US20250161481A1 (published 2025)
Each block holds one binder with its values, some of them ahead of it.

Columns and labels:
[1] = target: human Cluster of Differentiation 3 protein (CD3) (human, UniProt P07766 23-207; P09693 23-182; P04234 22-171; P20963 22-164)
[2] = target: human Cluster of Differentiation 28 protein (CD28) (human, UniProt P10747 19-220)

Kd [1]: 727 nM
B1: MX1507 (antibody)
heavy 1: not shown
heavy 2: QVQLVQSGAEVAKPGASVKVSCKASGYTFTRYTMHWVKQAPGQGLEWIGYINPSRGYTNYAQKFQGKATLTTDKSTSTAYMELSSLRSEDTAVYYCARYYDDHYSLDYWGQGTTLTVSSASTKGPSVFPLAPSSKSTSGGTAALGCLVKDYFPEPVTVSWNSGALTSGVHTFPAVLQSSGLYSLSSVVTVPSSSLGTQTYICNVNHKPSNTKVDKKVEPKSCDKTHTCPPCPAPEAAGGPSVFLFPPKPKDTLMISRTPEVTCVVVDVSHEDPEVKFNWYVDGVEVHNAKTKPREEQYNSTYRVVSVLTVLHQDWLNGKEYKCKVSNKALAAPIEKTISKAKGQPREPQVCTLPPSRDELTKNQVSLSCAVKGFYPSDIAVEWESNGQPENNYKTTPPVLDSDGSFFLVSKLTVDKSRWQQGNVFSCSVMHEALHNHYTQKSLSLSPG
light: DIQLTQSPSSLSASVGDRVTITCRASQSISYLNWYQQKPGKSPKRWIYDTSKLASGVPSRFSGSGSGTDYTLTISSMQPEDAATYYCQQWSSNPLTFGGGTKVEIKRTVAAPSVFIFPPSDEQLKSGTASVVCLLNNFYPREAKVQWKVDNALQSGNSQESVTEQDSKDSTYSLSSTLTLSKADYEKHKVYACEVTHQGLSSPVTKSFNRGEC
modifications: engineered C-terminal cysteine of the knob chain, joined by maleimide-thiol reaction to DSPE-PEG2000-maleimide on the LNP surface

Kd [1]: 1050 nM
B2: MX1500 (antibody)
chain 1: not shown
chain 2: DIQLTQSPSSLSASVGDRVTITCRASQSISYLNWYQQKPGKSPKRWIYDTSKLASGVPSRFSGSGSGTDYTLTISSMQPEDAATYYCQQWSSNPLTFGGGTKVEIKRTVAAPSVFIFPPSDEQLKSGTASVVCLLNNFYPREAKVQWKVDNALQSGNSQESVTEQDSKDSTYSLSSTLTLSKADYEKHKVYACEVTHQGLSSPVTKSFNRGECGGGGSGGGGSGGGGSGGGGSGGGGSGGGGSGGGGSGGGGSQVQLVQSGAEVAKPGASVKVSCKASGYTFTRYTMHWVKQAPGQGLEWIGYINPSRGYTNYAQKFQGKATLTTDKSTSTAYMELSSLRSEDTAVYYCARYYDDHYSLDYWGQGTTLTVSSASTKGPSVFPLAPSSKSTSGGTAALGCLVKDYFPEPVTVSWNSGALTSGVHTFPAVLQSSGLYSLSSVVTVPSSSLGTQTYICNVNHKPSNTKVDKKVEPKSCDKTHTCPPCPAPEAAGGPSVFLFPPKPKDTLMISRTPEVTCVVVDVSHEDPEVKFNWYVDGVEVHNAKTKPREEQYNSTYRVVSVLTVLHQDWLNGKEYKCKVSNKALAAPIEKTISKAKGQPREPQVCTLPPSRDELTKNQVSLSCAVKGFYPSDIAVEWESNGQPENNYKTTPPVLDSDGSFFLVSKLTVDKSRWQQGNVFSCSVMHEALHNHYTQKSLSLSPG

Kd [2]: 1.34 nM
B3: MX1506 (antibody)
heavy 1: not shown
heavy 2: QVQLVQSGAEVKKPGASVKVSCKASGYTFTSYYIHWVRQAPGQGLEWIGSIYPGNVNTNYNEKFKDRATLTVDTSISTAYMELSRLRSDDTAVYFCTRSHYGLDWNFDVWGQGTTVTVSSASTKGPSVFPLAPSSKSTSGGTAALGCLVKDYFPEPVTVSWNSGALTSGVHTFPAVLQSSGLYSLSSVVTVPSSSLGTQTYICNVNHKPSNTKVDKKVEPKSCDKTHTCPPCPAPEAAGGPSVFLFPPKPKDTLMISRTPEVTCVVVDVSHEDPEVKFNWYVDGVEVHNAKTKPREEQYNSTYRVVSVLTVLHQDWLNGKEYKCKVSNKALAAPIEKTISKAKGQPREPQVCTLPPSRDELTKNQVSLSCAVKGFYPSDIAVEWESNGQPENNYKTTPPVLDSDGSFFLVSKLTVDKSRWQQGNVFSCSVMHEALHNHYTQKSLSLSPG
light: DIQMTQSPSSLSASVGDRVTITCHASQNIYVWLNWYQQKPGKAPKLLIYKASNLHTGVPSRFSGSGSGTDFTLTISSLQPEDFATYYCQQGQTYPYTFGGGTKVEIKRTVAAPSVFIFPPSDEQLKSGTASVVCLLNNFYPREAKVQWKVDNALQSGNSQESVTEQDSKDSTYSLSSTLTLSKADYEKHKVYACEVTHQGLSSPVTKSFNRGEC
modifications: engineered C-terminal cysteine of the knob chain, joined by maleimide-thiol reaction to DSPE-PEG2000-maleimide on the LNP surface

Kd [2]: 2.55 nM | Kd [1]: 6.92 nM
B4: MX1243 (antibody)
chain 1: not shown
chain 2: DIQLTQSPSSLSASVGDRVTITCRASQSISYLNWYQQKPGKSPKRWIYDTSKLASGVPSRFSGSGSGTDYTLTISSMQPEDAATYYCQQWSSNPLTFGGGTKVEIKGGGGSGGSGSGGGGSASGSGQVQLVQSGAEVAKPGASVKVSCKASGYTFTRYTMHWVKQAPGQGLEWIGYINPSRGYTNYAQKFQGKATLTTDKSTSTAYMELSSLRSEDTAVYYCARYYDDHYSLDYWGQGTTLTVSSASGGSGDKTHTCPPCPAPEAAGGPSVFLFPPKPKDTLMISRTPEVTCVVVDVSHEDPEVKFNWYVDGVEVHNAKTKPREEQYNSTYRVVSVLTVLHQDWLNGKEYKCKVSNKALAAPIEKTISKAKGQPREPQVCTLPPSRDELTKNQVSLSCAVKGFYPSDIAVEWESNGQPENNYKTTPPVLDSDGSFFLVSKLTVDKSRWQQGNVFSCSVMHEALHNHYTQKSLSLSPG
